Assay results published in article PMC11137178, “Protein disulfide isomerase-9 interacts with the lumenal region of the transmembrane endoplasmic reticulum stress sensor kinase, IRE1, to modulate the unfolded protein response in Arabidopsis” (Frontiers in Plant Science, 2024).
Residue numbers refer to the chain shown, from its start. Numbers in names are those of the source. Values belong to the binder of their own block, whether it stands above or below them.

Tests used:
PDI9:mCherry-KDEL = biological target: T1, PDI9:mCherry-KDEL (Arabidopsis thaliana, UniProt O48773 25-440); experiment: FRET or BRET; FLIM-FRET in living Arabidopsis leaf mesophyll protoplasts coexpressing the GFP donor (on IRE1) and the mCherry acceptor (on PDI9), 16-18 h after transfection; GFP lifetime per region of interest; E = (1 - ti/t0) x 100% against single-transfected GFP:IRE1; conditions: partners not purified
T1 construct: Protein disulfide isomerase-9 (PDI9, PDI-M subfamily), Arabidopsis thaliana, At2g32920; made from the earlier construct PDI9:GFP-KDEL (Yuen et al., 2013) by exchanging GFP for mCherry; also called PDI9:Cherry-KDEL; PDI9:RFP; source: Arabidopsis leaf mesophyll protoplasts, transiently transfected, in living cells; not shown: mCherry-KDEL, C-terminal, kept
T1 sequence (looked up): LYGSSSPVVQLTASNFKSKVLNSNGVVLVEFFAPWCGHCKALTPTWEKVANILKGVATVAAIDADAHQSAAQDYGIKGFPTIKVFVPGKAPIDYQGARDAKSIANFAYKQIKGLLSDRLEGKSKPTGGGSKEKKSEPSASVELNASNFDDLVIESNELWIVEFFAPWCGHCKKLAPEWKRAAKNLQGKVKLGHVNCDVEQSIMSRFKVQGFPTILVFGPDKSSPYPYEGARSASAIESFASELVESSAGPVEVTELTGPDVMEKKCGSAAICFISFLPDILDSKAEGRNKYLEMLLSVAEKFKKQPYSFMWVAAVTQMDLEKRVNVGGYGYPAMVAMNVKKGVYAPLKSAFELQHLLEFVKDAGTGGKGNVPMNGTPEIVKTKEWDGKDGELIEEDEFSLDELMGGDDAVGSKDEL

PDI9(C63A):mCherry-KDEL = biological target: T2, PDI9(C63A):mCherry-KDEL (Arabidopsis thaliana, UniProt O48773 25-440, C63A); experiment: as above; conditions: partners not purified
T2 construct: PDI9, Arabidopsis thaliana, At2g32920; as m1 with the second cysteine of the first thioredoxin active site (CGHC to CGHA) changed; Parent construct m1; source: Arabidopsis leaf mesophyll protoplasts, transiently transfected, in living cells; not shown: mCherry-KDEL, C-terminal, kept
T2 sequence (looked up): T1 sequence (looked up) with C39A

GFP donor fluorescence lifetime (PDI9:mCherry-KDEL): 2.29 ns
GFP donor fluorescence lifetime (PDI9(C63A):mCherry-KDEL): 2.42 ns
B1: GFP : IRE1A (receptor, Arabidopsis thaliana, UniProt Q9C5S2 31-841, looked up)
chain: DDVTYPIVPSSPGRRSILQIRREPPTEPNTKLVVDRDGKVFLKQQPKETPYWSFSTGSPMHSLYQAPANNNTENATEITRPHIIVEYLNNSKAATTVDGYHNWTVQEFFRQKPLVTDDGVTLGSETTSAYLVDGRSGRLIHVYKSTGDTKITNALVKPASTEDFVNEPLLIRRTDSKLEHFSKTTGKLVWNLTVSHFRAALLCDPVFNSGYDLGPKLQTGIYMPLLCGSQIDVRGPEIVIRVLHDQPMNVKMLPSPSLNHFESENSIMPFGKARESRKLQEQHKQKYTYLFGQWSPVKLLAPLVLLGVVVSVFIKKFSSRGSDVSLKAGPSKKKKNRKSAKDTNRQSVPRGQDQFELIEGGQMLLGFNNFQSGATDGRKIGKLFLSSKEIAKGSNGTVVFEGIYEGRPVAVKRLVRSHHEVAFKEIQNLIASDQHTNIIRWYGVEYDQDFVYLSLERCTCSLDDLIKSYLEFSMTKVLENNDSTEGVAAYKIQLDSLEGVIKGNNFWKVGGHPSPLMLKLMRDIVCGIVHLHELGIVHRDLKPQNVLISKDMTLSAKLSDMGISKRMSRDMSSLGHLATGSGSSGWQAPEQLLQGRQTRAVDMFSLGCVIFYTITGCKHPFGDDLERDVNIVKNKVDLFLVEHVPEASDLISRLLNPDPDLRPSATEVLLHPMFWNSEMRLSFLRDASDRVELENREADSEILKAMESTAPVAIGGKWDEKLEPVFITNIGRYRRYKYDSIRDLLRVIRNKLNHHRELPPEIQELVGTVPEGFDEYFAVRFPKLLIEVYRVISLHCREEEVFRKYFKCDII
notes: IRE1A (inositol-requiring enzyme-1 kinase), Arabidopsis thaliana, At2g17520; mature polypeptide region amplified from Col-0 genomic DNA and placed after the IRE1A signal peptide and GFP; Construct order: IRE1A signal peptide, GFP, mature IRE1A; source: Arabidopsis leaf mesophyll protoplasts, transiently transfected; in living cells (FLIM-FRET) and in protoplast extract (co-I.P.); not shown: GFP …

GFP donor fluorescence lifetime (PDI9:mCherry-KDEL): 2.31 ns
GFP donor fluorescence lifetime (PDI9(C63A):mCherry-KDEL): 2.42 ns
B2: GFP : IRE1B (receptor, Arabidopsis thaliana, UniProt Q93VJ2 22-881, looked up)
chain: FKGSEISKFYDKSISNQISQSDRESGYVLVSTVDGSISLVDMSSQKLDWTFHTNEPIYSSYQAPHYHYTTDEERSSVLGDDFYMDCDKDWRLYNSSVRKGKRVNEIVDASEFIGTLPYTSTDRIVLGKKDTSVFLLDWKTGKLVKRYRMDELYSNTVVENDKEKAIVLSKEAPLLFGSGFKKSEDFPELVYIERKDFKIQCISKFGDVLWSVSYAKMEAKLQNHESVQFISGLSSSVGKNQFPLSYTTSVPMVQLRNVKYETLFPRLGFLDEALYLPFQDRKPNQLAIGDGNQLTLPGNKEAEEVLSLPLPETVISQITDIIDGSTKQAGFASKFSGLIVLIFGFCVTMLSVCGLFFYRLRQSIRIKEPYVSEVPIATPKKKKSKKNGTTKAVHKKENGFISGGNKDPSHEENEKRLLTAFPGLNNSSAEGYRVGKLFVSNKEIAKGSNGTVVLEGSYEGRLVAVKRLVQSHHDVAQKEILNLMASDKHSNIVRWYGVDQDEHFIYISLELCACSLNDLIYASSALLESPMASSSIHSIQINPIFENGKGVELWKENGHPSPVLLKLMRDIVAGLVHLHDIGIVHRDLKPQNVLIVKNSSLCAKLSDMGISKRLPADTSALTRNSTGLGSGSSGWQAPEQLRNERQTRAVDLFSLGCVLFFCMTGGKHPYGDNYERDVNVLNDQKDLFLIESLPEAVHLLTGLLNPDPNLRPRAQDVMHHPLFWNSDMRLSFLRDASDRVELENREEGSQLLAALESTAAVTLNGRWDEKLDSIFLDNIGRYRRYKFDSIRDLLRVIRNKLNHYRELPKELQELLGSVPEGFERYFSSRFPKLLIQVYTVLFDYCNNEEFFFKYSKTTVF
notes: IRE1B, Arabidopsis thaliana, At5g24360; mature polypeptide region amplified from Col-0 genomic DNA and placed after the IRE1B signal peptide and GFP; Construct order: IRE1B signal peptide, GFP, mature IRE1B; source: Arabidopsis leaf mesophyll protoplasts, transiently transfected; in living cells (FLIM-FRET) and in protoplast extract (co-I.P.); not shown: GFP (eGFP S65T), N-terminal, kept
